# Measured values: patent US6391305
# Values joined by “and” are separate entries in the source; they are usually repeats but may differ in a detail not shown here. Equal values may be shown once.
# Key:
# [1] = system: (2R,3S) 2,3,4-trihydroxybutanoyl-SHomoRChgQ-SL-DOX (3′)
# [2] = system: (2R,3S) 2,3,4-trihydroxybutanoyl-ShRChgQ-SL-acid
# [3] = system: (d)2,3-dihydroxypropionyl-3PAL-SSChgQSL-acid
# [4] = system: (d)2,3-dihydroxypropionyl-3PALSSChgQ-SL-DOX (3′).AcOH
# [5] = system: (d)2,3-dihydroxypropionyl-HomoRSSChgQSL-DOX (3′)
# [6] = system: (d)2,3-dihydroxypropionyl-SHomoRChgQ-SL-DOX (3′)
# [7] = system: (d)2,3-dihydroxypropionylSSChgQ-SL-DOX (3′)
# [8] = system: (d)2,3-dihydroxypropionylSSSChgQ-SL-DOX (3′)
# [9] = system: (l)2,3-dihydroxypropionyl-3PAL-SSChgQ-SL-acid
# [10] = system: (l)2,3-dihydroxypropionyl-HomoRSSChgQ-SL-DOX (3′)
# [11] = system: (l)2,3-dihydroxypropionyl-SHomoRChgQ-SL-DOX (3′)
# [12] = system: (l)2,3-dihydroxypropionyl-SSChgQ-SL-DOX (3′)
# [13] = system: (l)2,3-dihydroxypropionyl-SSChgQ-SL-acid
# [14] = system: (l)2,3-dihydroxypropionyl-SSSChgQ-SL-acid
# [15] = system: (l)2,3-dihydroxypropionylSSSChgQ-S(dL)-DOX (3′)
# [16] = system: (l)2,3-dihydroxypropionylSSSChgQ-SL-DOX (3′)
# [17] = system: 2(S)-2,3-dihydroxy-propionyl ShRChgQSL-acid
# [18] = system: 2(S)2,3-dihydroxypropionyl-hRSSChgQ-SL-acid
# [19] = system: 2,3-dihydroxypropionyl-GSSChgQ-SL-acid
# [20] = system: 2,3-dihydroxypropionyl-HomoSSSChgQ-SL-DOX (3′)
# [21] = system: 2,3-dihydroxypropionyl-SSSChgQ-SL-acid
# [22] = system: 2,3-dihydroxypropionyl-ShRChgQ-SL-acid
# [23] = system: 2,3-dihydroxypropionyl-ShRYQ-SL-acid
# [24] = system: 2,3-dihydroxypropionyl-hSSSChgQ-SL-acid
# [25] = system: 2-hydroxyacetyl-HomoRASChgQ-SL-DOX (3′)
# [26] = system: 2-hydroxyacetyl-HomoRSSChgQ-SL-DOX (3′)
# [27] = system: 2-hydroxyacetyl-HomoRSSYQ-SL-DOX (3′)
# [28] = system: 2-hydroxyacetyl-HomoRSSYQ-SNle-DOX (3′)
# [29] = system: 2-hydroxyacetyl-SHomoRChgQ-SL-DOX (3′)
# [30] = system: 2-hydroxyacetyl-SSChgQ-SL-DOX (3′)
# [31] = system: 2-hydroxyacetyl-SSChgQ-SL-acid
# [32] = system: 2-hydroxyacetyl-SSSChgQ-SL-DOX (3′)
# [33] = system: 2-hydroxyacetyl-hRASChgQ-SL-acid
# [34] = system: 2-hydroxyacetyl-hRSSYQ-SL-acid
# [35] = system: 2-hydroxyacetyl-hRSSYQ-SNle-acid
# [36] = system: 2-hydroxyacetylhRYQ-SL-acid
# [37] = system: PEG(16)-SHomoRYQ-SL-DOX (3′)
# [38] = system: PEG(2)-3PAL-SSChgQ-SL-acid
# [39] = system: PEG(2)-ASChgQ-SL-DOX (3′)
# [40] = system: PEG(2)-HomoRSSChgQ-SL-DOX (3′)
# [41] = system: PEG(2)-SHomoRChgQ-SL-DOX (3′)
# [42] = system: PEG(2)-SHomoRYQ-SL-DOX (3′)
# [43] = system: PEG(2)-SHomoRYQ-SL-DOX(3′)
# [44] = system: PEG(2)-SSSChgQ-SL-DOX (3′)
# [45] = system: PEG(4)-β-PAL-SSChgQ-SL-acid
# [46] = system: PEG(6)-ASChgQ-SL-DOX (3′)
substance,measurement,setting,value
free prostate specific antigen (PSA),Time to 50% Substrate Cleavage by York PSA,[1],45 min
same,Time to 50% Substrate Cleavage by York PSA,[2],90 min
same,Time to 50% Substrate Cleavage by York PSA,(OH-Ac)SSSChgQ-SL-acid,120 min
same,Time to 50% Substrate Cleavage by York PSA,[3],80 min
same,Time to 50% Substrate Cleavage by York PSA (Min),[4],12 (PS)
same,Time to 50% Substrate Cleavage by York PSA,[5],12 min
same,Time to 50% Substrate Cleavage by York PSA,[6],65 min
same,Time to 50% Substrate Cleavage by York PSA,[7],120 min
same,Time to 50% Substrate Cleavage by York PSA,[8],55 min
same,Time to 50% Substrate Cleavage by York PSA,[9],70 min
same,Time to 50% Substrate Cleavage by York PSA,[10],12 min
same,Time to 50% Substrate Cleavage by York PSA,[11],15 min
same,Time to 50% Substrate Cleavage by York PSA,[12],25 min
same,Time to 50% Substrate Cleavage by York PSA,[13],180 min
same,Time to 50% Substrate Cleavage by York PSA,[14],80 min and 110 min
same,Time to 50% Substrate Cleavage by York PSA,[15],180 min
same,Time to 50% Substrate Cleavage by York PSA,[16],25 min
same,Time to 50% Substrate Cleavage by York PSA,[17],35 min
same,Time to 50% Substrate Cleavage by York PSA,[18],25 min
same,Time to 50% Substrate Cleavage by York PSA,[19],160 min
same,Time to 50% Substrate Cleavage by York PSA,[20],35 min
same,Time to 50% Substrate Cleavage by York PSA,[21],120 min
same,Time to 50% Substrate Cleavage by York PSA,[22],75 min
same,Time to 50% Substrate Cleavage by York PSA,[23],35 min and 50 min
same,Time to 50% Substrate Cleavage by York PSA,[24],160 min
same,Time to 50% Substrate Cleavage by York PSA,[25],10 min
same,Time to 50% Substrate Cleavage by York PSA,[26],12 min
same,Time to 50% Substrate Cleavage by York PSA (Min),[27],16 (PS)
same,Time to 50% Substrate Cleavage by York PSA,[28],60 min
same,Time to 50% Substrate Cleavage by York PSA,[29],15 min
same,Time to 50% Substrate Cleavage by York PSA,[30],45 min
same,Time to 50% Substrate Cleavage by York PSA,[31],180 min
same,Time to 50% Substrate Cleavage by York PSA,[32],25 min
same,Time to 50% Substrate Cleavage by York PSA,[33],70 min
same,Time to 50% Substrate Cleavage by York PSA (Min),[34],35 (PP)
same,Time to 50% Substrate Cleavage by York PSA,[35],45 min
same,Time to 50% Substrate Cleavage by York PSA,[36],105 min
same,Time to 50% Substrate Cleavage by York PSA,Ac-ANKASYQ-SL-acid,135 min and 220 min
same,Time to 50% Substrate Cleavage by York PSA (Min),Ac-ShRYQ-SNle-acid,25 (PS)
same,Time to 50% Substrate Cleavage by York PSA (Min),Ac-hR(CHA)Q-SNle-acid,200 (PS)
same,Time to 50% Substrate Cleavage by York PSA,Ac-hRASChgQ-SL-acid,50 min
same,Time to 50% Substrate Cleavage by York PSA (Min),Ac-hRSSYQ-SNle-acid,25 (PS)
same,Time to 50% Substrate Cleavage by York PSA,AchRSSChgQ-SL-acid,120 min and 45 min
same,Time to 50% Substrate Cleavage by York PSA,PEG(1)-ShRChgQ-SL-acid,120 min
same,Time to 50% Substrate Cleavage by York PSA,PEG(1)-ShRYQ-SL-acid,90 min
same,Time to 50% Substrate Cleavage by York PSA,PEG(1)-hRSSChgQ-SL-acid,30 min
same,Time to 50% Substrate Cleavage by York PSA,PEG(14)ShRYQ-SL-acid,40 min
same,Time to 50% Substrate Cleavage by York PSA,PEG(15)-ShRYQ-SL-acid,40 min
same,Time to 50% Substrate Cleavage by York PSA,[37],65 min
same,Time to 50% Substrate Cleavage by York PSA,PEG(16)-ShRYQ-SL-acid,40 min
same,Time to 50% Substrate Cleavage by York PSA,PEG(17)-ShRYQ-SL-acid,55 min
same,Time to 50% Substrate Cleavage by York PSA,PEG(18)ShRYQ-SL-acid,40 min
same,Time to 50% Substrate Cleavage by York PSA,PEG(19)ShRYQ-SL-acid,60 min
same,Time to 50% Substrate Cleavage by York PSA,[38],80 min
same,Time to 50% Substrate Cleavage by York PSA,[39],45 min
same,Time to 50% Substrate Cleavage by York PSA,[40],11 min
same,Time to 50% Substrate Cleavage by York PSA,PEG(2)-S-hRChgQ-SL-acid,30 min
same,Time to 50% Substrate Cleavage by York PSA,[41],25 min
same,Time to 50% Substrate Cleavage by York PSA,[42],60 min
same,Time to 50% Substrate Cleavage by York PSA,[43],35 min
same,Time to 50% Substrate Cleavage by York PSA,[44],60 min
same,Time to 50% Substrate Cleavage by York PSA,PEG(2)-ShRYQ-SL-acid,35 min
same,Time to 50% Substrate Cleavage by York PSA,PEG(2)-hRSSChgQ-SL-acid,40 min
same,Time to 50% Substrate Cleavage by York PSA,PEG(2)SSChgQ-SL-DOX (3′),90 min
same,Time to 50% Substrate Cleavage by York PSA,PEG(2)SSSChgQ-SL-acid,150 min
same,Time to 50% Substrate Cleavage by York PSA,[45],60 min
same,Time to 50% Substrate Cleavage by York PSA,[46],160 min
